From patent publication US20250296995A1 (GlaxoSmithKline, published 2025)
Numbering of substitutions follows the chain as printed.

B1: AB001472 (antibody, V domains shown)
VH: QVQLVESGGGVVQPGRSLRLSCAASGFTFSSYGMHWVRQAPGKGLEWVAVIWYDGSNKYYADSVKGRFTISRDNSQNTLFLQMNSLRAEDTAVYYCARVGEYSSSPDWGAAFDIWGQGTMVTVSS
VL: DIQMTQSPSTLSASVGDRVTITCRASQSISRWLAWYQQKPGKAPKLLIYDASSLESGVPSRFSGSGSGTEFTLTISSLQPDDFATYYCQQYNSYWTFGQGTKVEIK
B2: AB-000394 (antibody, V domains shown)
VH: QAQPVESGGGVVQPGKSLRLSCAASGFTFRNFGMHWVRQAPGKGLEWVAVIWHDGSNQFYADSVEGRFTISRDNSKNTLYLQMDSLRVEDTAMYYCARDRGYSGSWGYFDHWGQGTLVTVSS
VL: EIVLTQSPATLSLSPGERATLSCRASQSISDYLAWYQQKPGQAPRLLIYDASFRATGIPARFSGSGSGTDFTLTISSLEPEDFAVYYCQQRSIGFTFGPGTKVDIK
B3: AB-001545 (antibody, V domains shown)
VH: QVQLVESGGGVVQPGRSLRLSCAASGFTFSSYGMHWVRQAPGKGLEWVAVIWYDGSNKYYADSVKGRFTISRDNSKNTLYLQMNSLRAEDTAVYYCARDLDYSNHNWFDPWGQGTLVTVSS
VL: B2 VL with I29V, D31S, F53N, I93N, G94W, P99Q, K102R, V103L, D104E
B4: AB-000376 (antibody, V domains shown)
VH: QVQLVESGGGVVQPGRSLRLSCTASGFTFSNYGMHWVRQAPGRALEWVAIIWHDGSNKYYADSVKGRFTISRDNSKNTLYLQMNNVRVEDTAVYHCAKVGGFGELYEAFDFWGQGTLVTVSS
VL: DIQMTQSPSTLSASVGDRVTITCRASHSISNWLAWYQQKPGKAPRLLIYKASSLNSGVPSRFSGSASGTEFTLTISSLQPDDFATYFCQQYNAYWTFGQGTKVEIK
B5: AB001529 (antibody, V domains shown)
VH: QVQLVESGGGVVQPGRSLRLSCVASGFSFRSYGMHWVRQAPGKGLEWVAIIWYDGSNKYYAHSVKGRFTISRDNSKNTLYLQMNSLRAEDTAIYYCAKDGGTETTWGNAFDIWGQGTMVTVSS
VL: B4 VL with H27Q, N31S, R45K, N55E, A66G, S76N, S77N, F87Y, A93S
B6: AB001428 (antibody, V domains shown)
VH: QVQLVESGGGVVQPGRSLRLSCVVSGFTFSSYGMHWVRQAPGKGLEWVAIIWYDGSKKYYADSVKGRFTISRDNSKNTLYLQMNSLRAEDTAVYYCARPGDSSGSHGEAFDIWGQGTMVTVSS
VL: B4 VL with A25P, H27Q, R45K, N55E, A66G, S77G, F87Y, A93T
B7: AB001396 (antibody, V domains shown)
VH: QVQLVESGGGVVQPGRSLRLSCAASGFTFSSYGMHWVRQAPGKGLEWVAIIWYDGSHKYYADSVKGRFTISRDNSKNTLYLQMNSLRAEDTAVYHCARVYQPTYYYDSSRGEAFDIWGQGTMVTVSS
VL: B4 VL with H27Q, N31S, R45K, S53N, N55G, A66G, F87Y, A93S
B8: AB001578 (antibody, V domains shown)
VH: QVQLVESGGGVVQPGRSLRLSCAASGFSFSNYGMHWVRQAPGKGLEWVAIIWYDGSNKYYADSVKGRFTISRDNSKNTLYLQMNSLRAEDTAVYYCARDGTIWDDSRGYILDYWGQGTLVTVSS
VL: EIVLTQSPATLSLSPGERATLSCRASQGVSSYLAWYQQKPGQAPRLLIYDASNRATGIPARFSGSGSGTDFTLTISSLEPEDFAVYYCQQRSNWPPTFGPGTKVDIK
B9: AB-000338 LS (antibody, V domains shown)
VH: QVQLVESGGGVVQPGRSLRLSCAASGFSFSTYGMHWIRQVPGKGLEWVAIIWHDGSKEFYADSVKGRFTISRDNSKKKLYLQMNSLRAEDTAIYYCVKDDFDSSGHSYFHYWGQGTLVTVSS
VL: GVVMTQSPLSLPVTLGQPASISCRSSQSLVHSDGNTYVHWFQQRPGQSPRRLIYKVSNRDSGVPDRFSGSGSGTDFTLKISRVEAEDVGVYYCMQGTQWWTFGQGTKVEIK
B10: AB-000231 (antibody, V domains shown)
VH: QVHLVESGGGVVQPGRSLRLSCAASGFTFRNYGIHWVRQAPGKGLEWVAVIWYDGSREFYADSVEGRFTVSRDNSKNTVFLQMNSLRVDDTAVYYCARAGYSDTSGYGDHWGQGTLVSVSS
VL: QSVLTQPPSVSGAPGQRVTISCTGGSSNIGAGYDVHWYQQLPGTAPKLLISHNNNRPSGVPDRFSGSKSGTSASLVIAGLQAEDEADYYCQSYDRRLSSSWVFGGGTRLTVLS
B11: AB-000373 (antibody, V domains shown)
VH: QVLLVESGGGVVQPGGSLRLSCTASGFTFKNYGMHWVRQAPGKGLEWVAVIWFDGSNEFYADSVEGRFTISRDNSKNTLYLQTNSLRAEDTAVYYCARSYTSSWLGFDFWGQGTLVTVSS
VL: DAVMTQTPLSLSVTPGQPASISCKSGQSLLHSDGKTYLYWYLQKPGQSPQLLIYEVSSRFSGVPDRFSGSGSGTDFTLKISRVEAEDVGVYYCMRGIHPRTFGQGTKVEIK
B12: AB-000391 (antibody, V domains shown)
VH: EVQLVQSGGGLVQPGGSLRLSCVASGFTLSSYEMNWVRQAPGKGLEWVSFISSSGSKKRYADSVKGRFTVSRDNAKNSLSLQMNSLRAEDTAVYYCARDHSTSDREYGLDVWGQGATVTVSS
VL: DVVMTQSPLSLPVTLGQPASISCRSGQSLLYSDGNTYLYWFQQRPGQSPRRLIYKVSNRDPGVPERFSGSGSGTDFTLKISRVEAEDVGIYFCLQGTHWPYTFGRGTKLEIK
B13: AB001458 (antibody, V domains shown)
VH: EVQLVESGGGLVQPGRSLRLSCTASGFTFGDYAMSWFRQAPGKGLEWVSFIRSKTYGGSTEYAASVKGRFTISRDDSKSIAYLQMHSLKTEDTAFYYCTRVSAAAGVGDYWGQGTLVTVSS
VL: EIVMTQSPATLSVSPGERATLSCRASQSVGSNLAWYQQKPGQAPRLLIYGASTRATGLPARFSGSGSATEFTLTISSLQSEDFAVYYCQQYNTWWTFGQGTKVEIK
B14: AB-000325 (antibody, V domains shown)
VH: QVQLVESGGGVVQPGRSLRLSCAASRFPFKNYGMHWVRQAPGKGLEWVALIWFDGSNKFYVDSVEGRFTISRDNSNNMLYLEMNSLRADDTAVYYCARAGRYDDSGYLDYWGQGTLVTVSS
VL: B13 VL with N32K, Q38H, L58I, A68G, I75V, T93H, W95Y, V103L
B15: AB001558 (antibody, V domains shown)
VH: QVQLVESGGGVVQPGRSLRLSCAASGFTFSSYGMHWVRQAPGKGLEWVAVIWYDGNNKYYVDSVKGRFTISRDNSKNTLYLQMNSLRAEDTAVYYCARDHDADYVEKWGAFDLWGQGTMVTVSS
VL: B13 VL with G30S, T53A, L58I, A68G, T93N, W94G, W95R, K106T
B16: AB001533 (antibody, V domains shown)
VH: QVQLVESGGGVVQPGRSLRLSCAASGFTFNSYGMHWVRQAPGKGLEWVALISFDGTNKFYADSVKGRFTISRDNSKNTLYLQMNSLRAEDTALYHCATDSLFYYDFHLFDYWGQGTLVTVSS
VL: DIVLTQTPLSSPVTLGQPASISCRSSQSLVYSDGNTYLNWLQQRPGQPPRLLIYKISNRFSGVPDRFSGSGAGTDFTLKISRVEAEDVGVYYCMQATQLYTFGQGTKLEIK
B17: AB-000327 (antibody, V domains shown)
VH: QVQLVESGGGVVQPGRSLRLSCAASRFTFKNYGMHWVRQGPGKGLEWVAVIWYDGSQEYYVDSVRGRFTISRDNSKDTLYLQMNSLRAEDTAVYYCVRDGRYRTSHQTSTGFFDLWGQGTLVTVSS
VL: QSMLTQPPSVSGAPGQRVTISCTGSSSNIGADYDVHWYQQLPGTAPKLLIYGNNNRPSGVPDRFSGSKSGTSASLAITGLQPEDEAEYYCQSYDSSLSGSFVFGTGTKVTVL
B18: AB001455 (antibody, V domains shown)
VH: QVQLVESGGGVVQPGRSLRLSCAASGFTFSNYGMHWVRQAPGKGLEWVAIIWYDGSSKYYADSVRGRFTISRDNSKNTLFLQMNSLRAEDTAVYYCARDDYYSSAYNHLGYWGQGTLVTVSS
VL: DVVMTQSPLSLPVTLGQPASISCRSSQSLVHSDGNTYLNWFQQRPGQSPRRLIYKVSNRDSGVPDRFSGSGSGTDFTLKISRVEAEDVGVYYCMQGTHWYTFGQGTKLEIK
B19: AB001554 (antibody, V domains shown)
VH: QVQLVESGGGVVQPGRSLRLSCAASGFTFSSYGMHWVRQAPGKGLEWVAVIWYDGSNKYHADSVKGRFTISRDNSKNTLYLQMNNLRSEDTAVYYCAKDETLWFGELSDGFDIWGQGTMVTVSS
VL: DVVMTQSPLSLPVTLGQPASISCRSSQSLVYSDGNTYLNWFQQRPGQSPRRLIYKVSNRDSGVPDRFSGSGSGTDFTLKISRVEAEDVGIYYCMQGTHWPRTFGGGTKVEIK
B20: AB001511 (antibody, V domains shown)
VH: QVQLVESGGGVVQPGRSLRLSCAASGFTFSSYGMHWVRQAPGKGLEWVAIIWYDGSNKYYADSVKGRFTISRDNSKNTLYLQMNSLRAEDTAVYYCARDTDDYYDAHTMDVWGQGTTVTVSS
VL: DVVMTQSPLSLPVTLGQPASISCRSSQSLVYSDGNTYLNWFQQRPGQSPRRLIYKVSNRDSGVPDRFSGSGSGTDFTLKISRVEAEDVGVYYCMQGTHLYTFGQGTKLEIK

Each binder was assayed against T1, recombinant Plasmodium falciparum circumsporozoite protein (CSP) (Plasmodium falciparum, UniProt Q7K740 21-375) (assay: SPR, recombinant CSP).
T1 construct: also called recombinant CSP
T1 sequence (Q7K740 21-375 limits assumed): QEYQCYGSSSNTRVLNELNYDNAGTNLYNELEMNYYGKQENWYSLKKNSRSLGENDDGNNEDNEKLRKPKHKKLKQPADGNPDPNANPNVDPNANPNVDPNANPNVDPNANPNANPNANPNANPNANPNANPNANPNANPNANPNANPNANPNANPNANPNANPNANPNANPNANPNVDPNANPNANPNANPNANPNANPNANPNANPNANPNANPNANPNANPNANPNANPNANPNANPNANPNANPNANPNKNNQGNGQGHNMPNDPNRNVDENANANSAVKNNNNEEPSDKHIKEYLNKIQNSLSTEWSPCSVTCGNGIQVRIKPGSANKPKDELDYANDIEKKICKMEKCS
B1 gave a Kd of 2.11 nM, a koff of 0.000518 s⁻¹ and a kon of 246000 M⁻¹ s⁻¹. With B2 the Kd was 0.105 nM, the koff was 0.00156 s⁻¹ and the kon was 1.48e+07 M⁻¹ s⁻¹. Work on B3 yielded a Kd of 4.96 nM, a koff of 0.000442 s⁻¹ and a kon of 89000 M⁻¹ s⁻¹. B4 was tested, and the Kd was 0.201 nM, the koff was 0.000866 s⁻¹ and the kon was 4.31e+06 M⁻¹ s⁻¹. For B5, the Kd was 1.64 nM, the koff was 0.00108 s⁻¹ and the kon was 660000 M⁻¹ s⁻¹. Work on B6 yielded a Kd of 1.18 nM, a koff of 0.00101 s⁻¹ and a kon of 855000 M⁻¹ s⁻¹. B7 showed a Kd of 1.47 nM, a koff of 0.000393 s⁻¹ and a kon of 268000 M⁻¹ s⁻¹. In the case of B8, the Kd is reported as 2.64 nM, the koff is reported as 0.000977 s⁻¹ and the kon is reported as 369000 M⁻¹ s⁻¹. B9 gave a Kd of 0.13 nM, a koff of 0.00147 s⁻¹ and a kon of 1.13e+07 M⁻¹ s⁻¹. Binder B10 has a Kd of 0.328 nM, a koff of 0.00142 s⁻¹ and a kon of 4.34e+06 M⁻¹ s⁻¹. B11 showed a Kd of 0.0592 nM, a koff of 0.00152 s⁻¹ and a kon of 2.58e+07 M⁻¹ s⁻¹. Work on B12 yielded a Kd of 0.616 nM, a koff of 0.000535 s⁻¹ and a kon of 869000 M⁻¹ s⁻¹. B13 gave a Kd of 0.921 nM, a koff of 0.00171 s⁻¹ and a kon of 1.86e+06 M⁻¹ s⁻¹. For B14, the Kd was 0.0529 nM, the koff was 0.00215 s⁻¹ and the kon was 4.07e+07 M⁻¹ s⁻¹. Work on B15 yielded a Kd of 40.2 nM, a koff of 0.000797 s⁻¹ and a kon of 19800 M⁻¹ s⁻¹. In the case of B16, the Kd is reported as 0.248 nM, the koff is reported as 0.000669 s⁻¹ and the kon is reported as 2.69e+06 M⁻¹ s⁻¹. B17 was tested, and the Kd was 0.467 nM, the koff was 0.00143 s⁻¹ and the kon was 3.06e+06 M⁻¹ s⁻¹. Work on B18 yielded a Kd of 1.37 nM, a koff of 0.000831 s⁻¹ and a kon of 608000 M⁻¹ s⁻¹. B19 was tested, and the Kd was 2.29 nM, the koff was 0.000716 s⁻¹ and the kon was 313000 M⁻¹ s⁻¹. B20 was tested, and the Kd was 2.03 nM, the koff was 0.000525 s⁻¹ and the kon was 259000 M⁻¹ s⁻¹.

These binders were tested against T1, recombinant Plasmodium falciparum … (assay: binding affinity column of the in vivo table (SPR, CSP)).
B1 was tested, and the Kd was 2.11 nM. Work on B2 yielded a Kd of 0.105 nM. In the case of B6, the Kd is reported as 1.18 nM. With B9 the Kd was 0.13 nM. Work on B11 yielded a Kd of 0.0592 nM. With B13 the Kd was 0.921 nM. For B16, the Kd was 0.248 nM. With B17 the Kd was 0.467 nM. B18 showed a Kd of 1.37 nM.
